Reference: paper PMC9769622, “ATPase Activity of Bacillus subtilis RecA Affects the Dynamic Formation of RecA Filaments at DNA Double Strand Breaks” (mSphere, 2022)
Blank lines part the entries; values can stand above or below the molecule they belong to.

Key:
RecA (RecAWT) = target: T1, RecA (RecAWT) (Bacillus subtilis, UniProt P16971); experiment: malachite green phosphate release; kinetic analysis of ATP binding; assay type: biochemical; details: with salmon sperm ssDNA, Mg2+, pH 7.4, 37 C
T1 construct: 6xHis tag kept (text says C-terminal, also written 6xHis-RecA); pET28a, E. coli BL21(DE3); about 38 kDa monomer
T1 sequence (P16971 11-348): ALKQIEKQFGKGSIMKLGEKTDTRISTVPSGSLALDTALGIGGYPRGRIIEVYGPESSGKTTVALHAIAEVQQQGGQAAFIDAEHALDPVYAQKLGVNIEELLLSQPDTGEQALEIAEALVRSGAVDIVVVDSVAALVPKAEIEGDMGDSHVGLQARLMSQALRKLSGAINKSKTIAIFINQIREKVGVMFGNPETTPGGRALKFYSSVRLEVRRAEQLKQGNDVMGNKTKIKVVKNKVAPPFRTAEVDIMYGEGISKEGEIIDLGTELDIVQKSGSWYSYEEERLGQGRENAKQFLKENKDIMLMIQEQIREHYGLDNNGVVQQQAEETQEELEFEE

[1] = target: Bacillus subtilis RecA K70A Walker A mutant, hexa-histidine fusion protein (B. subtilis) (UniProt P16971); experiment: mass photometry; protein alone; 2 uL sample added to 18 uL PBS pH 7.4, room temperature; 137 mM salt; poly-L-lysine coated coverslips
[2] = target: Bacillus subtilis RecA K70R Walker A mutant, hexa-histidine fusion protein (B. subtilis) (UniProt P16971); experiment: mass photometry; protein mixed with 32 nt ssDNA oligonucleotides and 1 mmol/l ATP, incubated 10 min at 37°C; measured in PBS pH 7.4
[3] = target: Bacillus subtilis RecA K70R Walker A mutant, hexa-histidine fusion protein (B. subtilis) (UniProt P16971); experiment: mass photometry; protein alone; 2 uL sample added to 18 uL PBS pH 7.4, room temperature; 137 mM salt; poly-L-lysine coated coverslips
[4] = target: Bacillus subtilis RecA, wild type, hexa-histidine fusion protein (B. subtilis) (UniProt P16971); experiment: as above

Molecule: Nc1ncnc2c1ncn2[C@@H]1O[C@H](COP(=O)(O)OP(=O)(O)OP(=O)(O)O)[C@@H](O)[C@H]1O [ATP]
malachite green phosphate release; kinetic analysis of ATP binding (RecA (RecAWT)): activity of wild type RecA comparable to that of E. coli RecA

stoichiometry N [1]: 2
Molecule: Bacillus subtilis RecA K70A Walker A mutant, hexa-histidine fusion protein (from UniProt P16971 11-348) (natural protein)

stoichiometry N [2]: 2
stoichiometry N [3]: 2
Molecule: Bacillus subtilis RecA K70R Walker A mutant, hexa-histidine fusion protein (from UniProt P16971 11-348) (natural protein)

stoichiometry N [4]: 2
Molecule: Bacillus subtilis RecA, wild type, hexa-histidine fusion protein (from UniProt P16971 11-348) (natural protein)
